Results on 1 substance are retold here after publication PMC9923667.

This assay deals with HPIV3 fusion (F) protein stabilized in the prefusion conformation (HPIV3 preF) (human parainfluenza virus type 3) (UniProt P06828). Description: cryo-EM structure.

With “HPIV3 fusion (F) protein stabilized in the prefusion conformation (HPIV3 preF) (from UniProt P06828 19-481) (natural protein)”, the stoichiometry N was found to be 3.

As usually defined, the stoichiometry N is a count of units in the complex or per binding partner.
